# Columns and labels:
# [1] = biological target: T1, HER3 ECD-HRG complex (human, UniProt P21860 20-643); assay: SPR Biacore 3000, antibody captured, 25 C
# T1 construct: also called Heregulin/Her-3 ECD
# Description: (§1) A CM5 series sensor was mounted into the system and was normalized in HBS-ET buffer (10 mM HEPES pH 7.4, 150 mM NaCl, 3 mM EDTA, 0.005% w/v Tween 20) according to the manufacturer's instructions. The sample buffer was the system buffer supplemented with 1 mg/ml CMD (Carboxymethyldextran). The system operated at 25° C. 10000 RU RAM-Fcγ(relative units of Fcγ-fragment Rabbit Anti-Mouse IgG/Jackson Laboratories) were immobilized according to the manufacturer's instructions using EDC/NHS chemistry on all flow cells. The sensor was deactivated using 1M ethanolamine. Analytes in solution were injected at 100 μl/min at different concentration steps of 0 nM, 1.1 nM, 3.7 nM, 11.1 nM, 33.1 nM and 90 nM for 2 min. The dissociation was monitored for 5 min. Acidic regeneration of the sensor surface was achieved using three consecutive injections of 10 mM Glycine pH 1.7 at 30 μl/min for 60 sec. Kinetic data were evaluated according to a Langmuir fit.
# [2] = biological target: T2, TtSlyD-FKBP-Her3; assay: SPR Biacore 3000, antibody captured, 25 C
# T2 construct: 15 kDa; N-terminal Met may be present or not; also called Thermus thermophilus SlyD FKBP-Her3; thermo SlyD-Her3
# T2 chain: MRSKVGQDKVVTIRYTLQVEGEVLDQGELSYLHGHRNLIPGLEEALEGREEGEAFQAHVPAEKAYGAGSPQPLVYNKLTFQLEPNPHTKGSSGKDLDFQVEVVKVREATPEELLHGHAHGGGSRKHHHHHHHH
# Description: as §1
# [3] = biological target: T3, human recombinant HER3 ECD (human, UniProt P21860 20-643); assay: SPR Biacore 3000, antibody captured, 25 C
# T3 construct: 68 kDa; also called human-Her3-ECD; full length Her3 ECD
# T3 sequence (P21860 20-643): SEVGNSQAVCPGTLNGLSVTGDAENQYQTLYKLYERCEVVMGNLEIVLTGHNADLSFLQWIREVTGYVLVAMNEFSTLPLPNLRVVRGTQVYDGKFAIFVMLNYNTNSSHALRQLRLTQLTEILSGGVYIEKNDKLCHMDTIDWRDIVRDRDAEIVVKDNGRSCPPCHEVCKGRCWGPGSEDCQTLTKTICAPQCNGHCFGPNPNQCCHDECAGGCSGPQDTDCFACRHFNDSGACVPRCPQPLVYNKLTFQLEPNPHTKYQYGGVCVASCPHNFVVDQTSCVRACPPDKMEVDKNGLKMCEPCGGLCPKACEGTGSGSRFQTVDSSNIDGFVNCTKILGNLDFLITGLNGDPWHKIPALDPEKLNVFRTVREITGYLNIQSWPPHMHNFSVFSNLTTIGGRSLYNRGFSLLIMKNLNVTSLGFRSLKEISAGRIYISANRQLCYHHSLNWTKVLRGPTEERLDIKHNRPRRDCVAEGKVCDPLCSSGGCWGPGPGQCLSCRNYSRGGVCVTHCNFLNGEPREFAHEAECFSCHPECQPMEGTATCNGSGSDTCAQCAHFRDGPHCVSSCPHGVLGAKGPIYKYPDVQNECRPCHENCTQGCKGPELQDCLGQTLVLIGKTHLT
# Description: as §1
# [4] = biological target: T1, HER3 ECD-HRG complex; assay: SPR Biacore T200, antibody captured, 25 C
# Description: (§2) A Biacore T200 instrument (GE Healthcare) was mounted with a CM5 series sensor. The sensor was normalized in HBS-ET buffer (10 mM HEPES pH 7.4, 150 mM NaCl, 3 mM EDTA, 0.05% w/v Tween 20) according to the manufacturer's instructions. The sample buffer was the system buffer supplemented with 1 mg/ml CMD (Carboxymethyldextran, Sigma #86524). The system operated at 25° C. 6500 RU RAM-Fey (relative units of Fey-fragment RamIgG, GE Healthcare) were immobilized according to the manufacturer's instructions using amine coupling EDC/NHS chemistry on all four flow cells. The sensor was deactivated using 1M ethanolamine. […] Concentration dependent kinetics were measured. […] All analytes were injected for 5 min association time and 10 min dissociation time at 100 μl/min flow rate. The sensor capture system was regenerated by a 3 min injection at 10 μl/min of 10 mM glycine pH 1.7. Where possible kinetic data was evaluated using the Biacore T200 evaluation software.
# [5] = biological target: T4, HER4 ECD-HRG complex (human, UniProt Q15303 26-651); assay: SPR Biacore T200, antibody captured, 25 C
# T4 construct: HER4 ECD preincubated with a 5-fold molar excess of Heregulin; also called HER-4-ECD-RG
# T4 sequence 1: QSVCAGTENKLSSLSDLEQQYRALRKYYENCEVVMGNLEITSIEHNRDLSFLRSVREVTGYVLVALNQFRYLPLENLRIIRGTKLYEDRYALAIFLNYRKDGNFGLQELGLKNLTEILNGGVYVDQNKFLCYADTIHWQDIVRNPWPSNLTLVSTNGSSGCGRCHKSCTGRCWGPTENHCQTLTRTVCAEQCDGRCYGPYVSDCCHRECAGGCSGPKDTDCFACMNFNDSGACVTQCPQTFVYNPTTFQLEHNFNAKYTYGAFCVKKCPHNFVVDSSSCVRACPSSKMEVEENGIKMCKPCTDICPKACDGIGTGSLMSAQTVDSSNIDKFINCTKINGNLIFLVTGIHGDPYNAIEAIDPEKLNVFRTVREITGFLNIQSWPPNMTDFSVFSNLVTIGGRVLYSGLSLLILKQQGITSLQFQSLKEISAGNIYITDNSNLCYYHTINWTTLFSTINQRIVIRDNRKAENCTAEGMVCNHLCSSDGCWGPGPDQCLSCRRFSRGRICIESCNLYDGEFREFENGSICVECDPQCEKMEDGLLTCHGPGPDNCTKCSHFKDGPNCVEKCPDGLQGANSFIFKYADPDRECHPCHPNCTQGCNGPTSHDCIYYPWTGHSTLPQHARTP
# T4 sequence 2: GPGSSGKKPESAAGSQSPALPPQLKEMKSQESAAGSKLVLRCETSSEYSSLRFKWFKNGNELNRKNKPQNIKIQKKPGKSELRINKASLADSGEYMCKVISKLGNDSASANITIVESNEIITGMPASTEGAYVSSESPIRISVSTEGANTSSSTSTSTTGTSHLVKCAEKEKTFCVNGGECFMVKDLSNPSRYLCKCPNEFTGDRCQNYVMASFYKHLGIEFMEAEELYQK
# Description: as §2
# [6] = biological target: T5, TtSlyDcas; assay: SPR Biacore T200, antibody captured, 25 C
# T5 construct: control scaffold without insert; N-terminal Met may be present or not
# T5 chain: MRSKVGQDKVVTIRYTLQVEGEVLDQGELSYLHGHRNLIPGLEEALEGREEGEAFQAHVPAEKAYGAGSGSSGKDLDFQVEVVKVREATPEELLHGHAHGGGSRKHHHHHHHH
# Description: as §2
# [7] = biological target: T6, HER3 ECD binding epitope peptide VYNKLTFQLEP (human); assay: CelluSpots peptide array, 1 µg/mL antibody
# T6 construct: the spotted peptides were longer
# T6 peptide: VYNKLTFQLEP
# [8] = biological target: T7, HER4 ECD binding epitope peptide VYNPTTFQLE (human); assay: CelluSpots peptide array, 1 µg/mL antibody
# T7 construct: the spotted peptides were longer
# T7 peptide: VYNPTTFQLE
# T1 sequence (P21860 20-643 limits assumed, one chain of several): as the sequence (P21860 20-643) above
binder,measurement,setting,value
"anti-HER3/HER4 antibody M-05-74 (antibody, V domains shown, murine monoclonal antibody from hybridoma (supernatant or purified); also called M-074; M-5-74) VH: QVQLQQSGAELAKPGASVKMSCKTSGYTLTDYWIHWVKQRPGQGLEWIGYINPYTGYTESNQKFKDKATLTADKSSNTAYIQLSSLTSEDSAVYYCARPYYYGDYWGQGTTLTVSS VL: QIVLTQSPAIMSASPGERVTITCSASSSVSYMHWFQQKPGTSPKLLIYSTSNLASGVPARFSGSGSGTSYSLTISRMEAEDAATYYCQQRSSYPFTFGSGTKLEIK",Binding Late BL,[1],199 RU
same,Molar Ratio MR,[1],0.8
same,Binding Late BL,[2],68.1 RU
same,Molar Ratio MR,[2],1.5
same,Binding Late BL,[3],36 RU
same,Molar Ratio MR,[3],0.2
same,Molar Ratio MR,[4],0.8
same,Molar Ratio MR,[5],0.8
same,Molar Ratio MR,[6],0
same,binding result,[6],no binding (tested: 90 nM)
same,binding result,[7],binds
same,binding result,[8],binds
